This is an account of results in PMC9681084, “MYB44-ENAP1/2 restricts HDT4 to regulate drought tolerance in Arabidopsis” (PLOS Genetics, 2022).

The target in the test is T1, GST-MYB44 (Arabidopsis, UniProt Q9FDW1 1-305).
T1 construct: MYB44, Arabidopsis; the CDS ligated to pGEX-KG; source: E. coli, purified (Glutathione Sepharose resin)
The test can be described thus: pull-down; GST-MYB44 as bait, GST as control; purified proteins from E. coli incubated overnight at 4°C, washed four times, western blot. The conditions noted are these: both partners purified.

T1 sequence (Q9FDW1 whole entry): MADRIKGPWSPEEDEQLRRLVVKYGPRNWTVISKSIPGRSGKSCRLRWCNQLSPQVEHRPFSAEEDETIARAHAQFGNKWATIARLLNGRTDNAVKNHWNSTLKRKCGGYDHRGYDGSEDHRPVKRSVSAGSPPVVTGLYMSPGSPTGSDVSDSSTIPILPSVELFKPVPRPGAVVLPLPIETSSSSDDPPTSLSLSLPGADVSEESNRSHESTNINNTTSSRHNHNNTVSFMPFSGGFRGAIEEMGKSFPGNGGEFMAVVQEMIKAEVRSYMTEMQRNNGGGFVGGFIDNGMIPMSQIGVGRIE

B1: MBP-ENAP1 (natural protein, Arabidopsis, UniProt Q8VZI9 1-249, looked up)
chain: METTPETQSKTHRLPAGREDWWSEDATATLIEAWGDRYVNLNRGNLRQNDWKEVADAVNSSHGNGRPKTDVQCKNRIDTLKKKYKTEKAKPLSNWCFFDRLDFLIGPVMKKSSGAVVKSALMNPNLNPTGSKSTGSSLDDDDDDDDDDEEDDDDAGDWGFVVRKHRKVEDVDSSEGSAFRELARSILKLGEAFERIEGKKQQMMIELEKQRMEVAKELELQRMNMLMEMQLELEKSKLGKRRAASGKKL
notes: ENAP1, Arabidopsis, AT3G11100; the CDS ligated to pVP13 (His tag removed); source: E. coli, purified (Amylose resin)
For the molecule B1, the binding result is “binds”.

B2: His-HDT4 (enzyme, Arabidopsis, UniProt Q9M4T3 1-203, looked up)
chain: MEFWGIEIKPGKPFKVIQKDGFMVHASQVTLGDVEKVKKDETFAVYVKIGDDENGFMIGNLSQKFPQFSIDLYLGHEFEISHNSTSSVYLIGYRTFDAFDELDEEIDSDSELDEYMEQQIAALPQNEINPEEDDESDSDEMGLDEDDDSSDEEDVEAEAPLKVAPPSKKMPNGAFEIAKGGKKNKSSGGKKRCPFPCGPSCKK
notes: HDT4, histone deacetylase of the HD2 family, Arabidopsis; the CDS ligated to pET28a; source: E. coli, purified (Ni-NTA agarose resin)
In the case of B2, the binding result is listed as “binds”.
